Assay results: the supplement of paper PMC10065799, “High-throughput profiling of sequence recognition by tyrosine kinases and SH2 domains using bacterial peptide display” (eLife, 2023)

Assays:
Jak2 = Jak2 (UniProt O60674); assay: phosphorylation enrichment, bacterial display (enrichment ratio); higher = better substrate or ligand; peptides without Tyr show the background
c-Src = assay: as above
EPHB1 = EPHB1 (UniProt P54762); assay: as above
c-Abl (mouse) = assay: as above
MERTK = MERTK (UniProt Q12866); assay: as above
Sequence of MERTK (Q12866 whole entry, looked up): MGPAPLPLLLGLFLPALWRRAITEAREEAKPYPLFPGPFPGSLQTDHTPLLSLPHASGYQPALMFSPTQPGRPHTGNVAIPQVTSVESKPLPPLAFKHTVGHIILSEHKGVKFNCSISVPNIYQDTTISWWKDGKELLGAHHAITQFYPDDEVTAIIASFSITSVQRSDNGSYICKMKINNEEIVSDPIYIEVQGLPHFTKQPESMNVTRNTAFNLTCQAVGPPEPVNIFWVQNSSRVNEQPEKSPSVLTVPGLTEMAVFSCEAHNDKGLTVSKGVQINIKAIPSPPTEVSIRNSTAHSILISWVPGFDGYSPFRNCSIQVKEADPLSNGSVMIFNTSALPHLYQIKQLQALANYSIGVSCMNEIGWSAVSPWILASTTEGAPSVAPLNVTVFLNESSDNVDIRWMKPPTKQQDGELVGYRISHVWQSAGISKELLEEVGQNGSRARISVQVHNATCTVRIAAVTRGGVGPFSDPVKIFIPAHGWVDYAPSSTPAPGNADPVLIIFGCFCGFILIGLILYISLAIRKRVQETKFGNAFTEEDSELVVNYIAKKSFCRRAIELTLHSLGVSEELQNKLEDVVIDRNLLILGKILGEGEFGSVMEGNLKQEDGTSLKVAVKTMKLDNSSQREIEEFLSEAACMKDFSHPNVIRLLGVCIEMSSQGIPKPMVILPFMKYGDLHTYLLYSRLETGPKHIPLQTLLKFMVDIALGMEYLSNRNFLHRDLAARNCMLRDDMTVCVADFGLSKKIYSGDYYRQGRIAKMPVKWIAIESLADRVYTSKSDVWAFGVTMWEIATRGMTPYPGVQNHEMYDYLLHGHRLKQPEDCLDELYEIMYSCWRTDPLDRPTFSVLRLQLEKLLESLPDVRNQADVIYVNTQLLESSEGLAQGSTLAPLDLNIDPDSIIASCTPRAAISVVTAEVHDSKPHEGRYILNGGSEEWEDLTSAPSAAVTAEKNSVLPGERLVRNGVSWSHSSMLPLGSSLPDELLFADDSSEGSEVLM

Fes = Fes (UniProt P07332); assay: as above
Sequence of Fes (P07332 whole entry, looked up): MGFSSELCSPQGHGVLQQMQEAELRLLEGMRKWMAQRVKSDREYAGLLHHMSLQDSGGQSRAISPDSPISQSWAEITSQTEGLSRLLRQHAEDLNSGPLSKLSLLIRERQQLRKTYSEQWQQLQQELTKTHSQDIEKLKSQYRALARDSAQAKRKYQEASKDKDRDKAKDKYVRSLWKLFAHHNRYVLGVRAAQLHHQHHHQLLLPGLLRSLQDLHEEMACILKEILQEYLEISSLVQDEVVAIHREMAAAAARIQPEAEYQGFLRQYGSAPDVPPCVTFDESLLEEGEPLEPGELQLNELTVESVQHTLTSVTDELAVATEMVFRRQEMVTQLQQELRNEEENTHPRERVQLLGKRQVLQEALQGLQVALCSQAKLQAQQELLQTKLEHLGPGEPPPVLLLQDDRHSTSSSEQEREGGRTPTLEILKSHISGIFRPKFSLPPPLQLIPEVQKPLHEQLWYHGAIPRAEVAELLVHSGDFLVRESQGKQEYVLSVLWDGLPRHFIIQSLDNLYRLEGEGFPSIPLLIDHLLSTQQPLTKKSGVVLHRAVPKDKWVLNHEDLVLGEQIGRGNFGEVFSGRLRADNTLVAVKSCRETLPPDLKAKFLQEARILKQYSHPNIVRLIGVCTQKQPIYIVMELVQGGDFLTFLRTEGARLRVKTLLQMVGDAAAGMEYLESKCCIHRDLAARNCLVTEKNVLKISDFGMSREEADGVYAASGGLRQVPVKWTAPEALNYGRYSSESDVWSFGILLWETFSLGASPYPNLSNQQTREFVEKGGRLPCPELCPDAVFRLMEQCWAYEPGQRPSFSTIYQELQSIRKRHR

FGFR1 = FGFR1 (UniProt P11362); assay: as above
FGFR3 = FGFR3 (UniProt P22607); assay: as above
Sequence of FGFR3 (P22607 whole entry, looked up): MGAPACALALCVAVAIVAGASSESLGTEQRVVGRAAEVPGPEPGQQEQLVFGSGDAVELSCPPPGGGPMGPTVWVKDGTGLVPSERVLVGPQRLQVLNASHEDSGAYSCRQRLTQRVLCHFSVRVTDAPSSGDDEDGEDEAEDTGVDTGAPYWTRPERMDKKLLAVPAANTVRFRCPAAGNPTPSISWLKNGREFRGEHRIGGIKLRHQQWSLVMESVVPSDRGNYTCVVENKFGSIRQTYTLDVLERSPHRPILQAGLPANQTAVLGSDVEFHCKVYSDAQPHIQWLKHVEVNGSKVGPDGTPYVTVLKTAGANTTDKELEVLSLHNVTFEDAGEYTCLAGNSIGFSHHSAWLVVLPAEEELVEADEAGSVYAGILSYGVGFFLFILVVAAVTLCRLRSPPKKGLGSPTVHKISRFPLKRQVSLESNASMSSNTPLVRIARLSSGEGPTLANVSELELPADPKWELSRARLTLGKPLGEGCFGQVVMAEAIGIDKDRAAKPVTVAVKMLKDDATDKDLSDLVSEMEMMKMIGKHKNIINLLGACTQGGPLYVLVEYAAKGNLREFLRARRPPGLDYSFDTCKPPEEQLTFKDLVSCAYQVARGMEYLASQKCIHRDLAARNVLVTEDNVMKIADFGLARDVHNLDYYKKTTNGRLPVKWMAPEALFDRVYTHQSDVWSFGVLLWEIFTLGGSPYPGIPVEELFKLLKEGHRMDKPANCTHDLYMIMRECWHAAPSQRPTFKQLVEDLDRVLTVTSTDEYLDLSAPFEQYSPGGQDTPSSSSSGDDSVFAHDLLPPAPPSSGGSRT

Fyn = Fyn (UniProt P06241); assay: as above
Sequence of Fyn (P06241 whole entry, looked up): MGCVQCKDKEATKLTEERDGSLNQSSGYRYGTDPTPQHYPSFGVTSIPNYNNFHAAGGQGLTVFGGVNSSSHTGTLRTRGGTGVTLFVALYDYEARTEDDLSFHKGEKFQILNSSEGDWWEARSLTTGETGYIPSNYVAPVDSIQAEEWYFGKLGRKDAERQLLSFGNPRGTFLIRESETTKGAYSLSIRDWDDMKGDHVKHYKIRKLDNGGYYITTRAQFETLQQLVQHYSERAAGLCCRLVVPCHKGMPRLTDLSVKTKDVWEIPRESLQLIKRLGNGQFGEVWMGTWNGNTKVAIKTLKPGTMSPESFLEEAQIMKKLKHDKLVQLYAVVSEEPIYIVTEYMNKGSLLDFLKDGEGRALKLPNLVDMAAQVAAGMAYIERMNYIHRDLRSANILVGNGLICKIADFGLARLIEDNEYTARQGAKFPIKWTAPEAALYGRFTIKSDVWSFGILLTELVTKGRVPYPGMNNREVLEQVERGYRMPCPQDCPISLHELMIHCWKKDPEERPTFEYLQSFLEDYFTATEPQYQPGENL

Fer (mouse) = assay: as above
Hck = Hck (UniProt P08631); assay: as above
Sequence of Hck (P08631 whole entry, looked up): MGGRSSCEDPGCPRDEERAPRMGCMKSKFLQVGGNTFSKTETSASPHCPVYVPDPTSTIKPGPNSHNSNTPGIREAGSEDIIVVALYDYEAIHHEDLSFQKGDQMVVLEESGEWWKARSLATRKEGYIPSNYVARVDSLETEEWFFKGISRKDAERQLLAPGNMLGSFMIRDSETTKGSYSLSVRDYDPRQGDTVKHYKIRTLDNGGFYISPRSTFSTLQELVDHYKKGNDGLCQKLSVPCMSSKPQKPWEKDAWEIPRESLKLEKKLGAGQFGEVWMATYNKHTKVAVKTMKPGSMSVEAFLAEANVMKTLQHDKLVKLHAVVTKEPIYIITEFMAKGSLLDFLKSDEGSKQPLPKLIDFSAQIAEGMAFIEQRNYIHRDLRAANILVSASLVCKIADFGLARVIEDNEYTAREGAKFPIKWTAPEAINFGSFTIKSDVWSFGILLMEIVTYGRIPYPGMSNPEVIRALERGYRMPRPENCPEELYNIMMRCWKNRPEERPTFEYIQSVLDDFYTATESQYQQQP

AncSZ = assay: as above
EPHB2 = EPHB2 (UniProt P29323); assay: as above
Grb2 SH2 = Grb2 SH2 (UniProt P62993); assay: SH2 binding enrichment of the phosphorylated peptide, bacterial display (enrichment ratio); higher = better substrate or ligand; peptides without Tyr show the background
Sequence of Grb2 SH2 (P62993 whole entry, looked up): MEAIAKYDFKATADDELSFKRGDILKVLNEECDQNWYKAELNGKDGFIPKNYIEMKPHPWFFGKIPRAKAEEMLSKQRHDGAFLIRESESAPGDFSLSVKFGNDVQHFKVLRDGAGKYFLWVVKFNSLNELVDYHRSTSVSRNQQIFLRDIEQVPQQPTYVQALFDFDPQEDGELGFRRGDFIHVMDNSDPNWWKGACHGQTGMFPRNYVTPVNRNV

c-Src SH2 = assay: as above
SHP2-C SH2 = assay: as above
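Throughout, for SH2 binding enrichment of the phosphorylated peptide, bacterial display: peptide library displayed on the E. coli surface as eCPX fusions, selected cells deep-sequenced, score is each peptide's frequency after selection divided by its frequency in the input.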
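Throughout, for phosphorylation enrichment, bacterial display: 11-residue human phosphosite peptides and single-mutation variants displayed on the E. coli surface, counted by deep sequencing, each peptide's frequency after selection divided by its frequency in the unselected input library; frequency after pTyr selection over input frequency; kinase dosed for 20-30% of maximal phosphorylation in three min.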

Sequence of EPHB1 (P54762 whole entry, looked up): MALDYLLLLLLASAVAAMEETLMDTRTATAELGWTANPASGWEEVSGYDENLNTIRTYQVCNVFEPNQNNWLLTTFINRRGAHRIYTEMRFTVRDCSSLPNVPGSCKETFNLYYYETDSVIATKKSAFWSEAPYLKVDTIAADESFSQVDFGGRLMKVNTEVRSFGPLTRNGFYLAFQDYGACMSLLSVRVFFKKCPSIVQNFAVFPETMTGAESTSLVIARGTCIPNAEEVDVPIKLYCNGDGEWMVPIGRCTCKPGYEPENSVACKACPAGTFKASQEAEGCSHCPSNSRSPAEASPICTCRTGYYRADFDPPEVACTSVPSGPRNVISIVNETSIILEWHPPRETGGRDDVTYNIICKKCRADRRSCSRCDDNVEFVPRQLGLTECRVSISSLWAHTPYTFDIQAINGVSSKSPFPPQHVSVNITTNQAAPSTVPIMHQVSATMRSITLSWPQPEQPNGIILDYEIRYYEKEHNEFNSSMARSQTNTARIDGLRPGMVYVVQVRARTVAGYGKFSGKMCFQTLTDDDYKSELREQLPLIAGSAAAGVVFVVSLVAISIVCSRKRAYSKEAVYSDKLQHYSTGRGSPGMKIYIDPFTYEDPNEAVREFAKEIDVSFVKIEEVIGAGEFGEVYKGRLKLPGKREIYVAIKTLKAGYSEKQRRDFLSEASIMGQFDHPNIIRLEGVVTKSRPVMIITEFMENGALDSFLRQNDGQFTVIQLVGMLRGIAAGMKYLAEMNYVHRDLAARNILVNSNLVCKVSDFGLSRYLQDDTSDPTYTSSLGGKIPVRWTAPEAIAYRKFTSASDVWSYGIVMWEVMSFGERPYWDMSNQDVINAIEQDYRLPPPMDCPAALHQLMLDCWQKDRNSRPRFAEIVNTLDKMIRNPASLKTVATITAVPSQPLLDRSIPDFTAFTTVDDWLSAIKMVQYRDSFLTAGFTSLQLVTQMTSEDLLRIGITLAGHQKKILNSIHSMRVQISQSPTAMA

| Sequence | phosphorylation enrichment (Jak2) | phosphorylation enrichment (c-Src) | phosphorylation enrichment (EPHB1) | phosphorylation enrichment (c-Abl (mouse)) | phosphorylation enrichment (MERTK) | phosphorylation enrichment (Fes) | phosphorylation enrichment (FGFR1) | phosphorylation enrichment (FGFR3) | phosphorylation enrichment (Fyn) | phosphorylation enrichment (Fer (mouse)) | phosphorylation enrichment (Hck) | phosphorylation enrichment (AncSZ) | phosphorylation enrichment (EPHB2) | SH2 binding enrichment (Grb2 SH2) | SH2 binding enrichment (c-Src SH2) | SH2 binding enrichment (SHP2-C SH2) |
| --- | --- | --- | --- | --- | --- | --- | --- | --- | --- | --- | --- | --- | --- | --- | --- | --- |
| KTNVSYFGALD [CACNB4_Y103_C104F] | 0.653 | 0.438 | 0.438 | 0.59 | 0.426 | 0.848 | 0.509 | 0.634 | 0.554 | 0.464 | 0.484 | 0.789 | 0.43 | 0.847 | 0.443 | 0.63 |
| INNKMYDPKMN [ENPP1_Y280_D276N] | 0.556 | 0.449 | 0.44 | 0.473 | 0.354 | 0.609 | 0.389 | 0.491 | 0.397 | 0.482 | 0.436 | 0.535 | 0.432 | 0.707 | 0.442 | 0.69 |
| LRSRVYEVPVE [SLC26A3_Y756_N753S] | 0.795 | 0.708 | 0.773 | 0.719 | 1.66 | 0.91 | 0.722 | 0.833 | 0.962 | 2.09 | 1.25 | 1.01 | 1.03 | 0.714 | 3.83 | 0.461 |
| KSVLVYRNGDP [DCDC2_Y22] | 0.55 | 0.4 | 0.431 | 0.446 | 0.355 | 0.617 | 0.362 | 0.449 | 0.426 | 0.435 | 0.405 | 0.539 | 0.401 | 0.972 | 0.622 | 0.829 |
| QLRPGYFPIPV [BAG3_Y93_I94F] | 0.981 | 0.423 | 0.448 | 0.53 | 0.531 | 0.679 | 0.593 | 0.56 | 0.536 | 0.42 | 0.466 | 0.6 | 0.585 | 0.697 | 0.475 | 0.906 |
| CTTIHYNYMFN [TP53_Y234_C238F] | 1 | 0.522 | 0.672 | 0.926 | 0.681 | 1.21 | 0.657 | 0.812 | 0.555 | 0.757 | 0.498 | 1.14 | 0.641 | 0.951 | 1.06 | 1.13 |
| ALIKAYDKAVA [SMN1_Y43] | 0.532 | 0.353 | 0.546 | 0.461 | 0.491 | 0.578 | 0.444 | 0.526 | 0.458 | 0.282 | 0.29 | 0.563 | 0.626 | 0.773 | 0.571 | 0.573 |
| IKNSGYISRFL [EIF2AK3_Y585_YF] | 0.61 | 0.43 | 0.366 | 0.537 | 0.44 | 0.669 | 0.367 | 0.495 | 0.348 | 0.286 | 0.379 | 0.564 | 0.455 | 1.24 | 0.793 | 1.1 |
| PFQGAYLKINK [MYO1B_Y967_E969K] | 1.18 | 0.319 | 0.539 | 0.88 | 0.461 | 1.52 | 0.417 | 0.909 | 0.582 | 0.853 | 0.643 | 1.1 | 0.571 | 1.11 | 1.61 | 0.908 |
| EFKKHYGYSLY [ANXA3_Y295] | 0.555 | 0.598 | 0.367 | 0.541 | 0.401 | 0.611 | 0.471 | 0.38 | 0.433 | 0.353 | 0.727 | 0.531 | 0.39 | 1.31 | 1.57 | 1.51 |
| LANNEYFFQVC | 2.29 | 1.35 | 1.55 | 1.74 | 0.933 | 2.72 | 12.8 | 9.36 | 1.4 | 0.939 | 0.932 | 3.75 | 0.804 | 0.599 | 0.611 | 0.888 |
| FVSIVCNDSGE [TSC2_Y1650_Y1650C] | 1.18 | 0.478 | 0.644 | 0.767 | 0.464 | 1.21 | 0.534 | 0.921 | 0.476 | 0.613 | 0.537 | 1.12 | 0.646 | 0.583 | 0.57 | 0.66 |
| LLVVLNKFRCF [PSEN1_Y154_Y154N_YF] | 1.66 | 1.05 | 0.951 | 2.08 | 0.795 | 1.88 | 1.1 | 1.18 | 1.02 | 0.951 | 0.837 | 1.82 | 1.11 | 1.7 | 1.35 | 1.34 |
| RLRAAYNLVKR [PFKM_Y103] | 0.766 | 0.653 | 0.571 | 0.815 | 0.559 | 1.04 | 0.658 | 1.01 | 0.632 | 0.771 | 0.698 | 1.16 | 0.715 | 0.721 | 0.39 | 0.489 |
| DDERGYRRVRC [GIGYF2_Y268_S273C] | 0.834 | 0.426 | 0.519 | 0.647 | 0.438 | 0.882 | 0.533 | 0.562 | 0.529 | 0.513 | 0.483 | 0.75 | 0.551 | 1.09 | 0.658 | 0.788 |
| LKTNCYNNGKD [DNMT3B_Y404] | 1.24 | 0.572 | 1.09 | 3.04 | 0.601 | 1.21 | 0.685 | 1.12 | 0.649 | 0.68 | 0.879 | 1.12 | 0.818 | 0.764 | 0.429 | 0.694 |
